{"source": "patent US20240168030A1", "about": "“DIRECT FLUORESCENT GLYCAN LABELING” (BIO-TECHNE CORPORATION, priority 2019, published 2024)", "assay_type_in_all_cases": "biochemical", "key": {"[1]": {"assay": "Enzymatic synthesis of Le^x and sLe^x by glycan gel electrophoresis, substrate G0", "method": "(§1) FIG. 21A. Schematic view of the enzymatic steps for Le^X and sLe^X synthesis on the antibody glycan G0. The glycan short names follow that of FIG. 10. FIG. 21B Kinetic comparison of galactosylation on G0 by B4GalT1, sialyation on G2 by ST3Gal4 and ST6Gal1, and fucosylation on A2[3] by FUT7. The reaction time for B4GalT1 was 10 minutes. The reaction time for ST3Gal4, FUT7 and ST6Gal1 was 5 hours. In each case, the labeling enzyme was subject to a 3-fold serial dilution starting from 1 μg each of B4GalT1, FUT7 and ST6Gal1, and 3 μg ST3Gal4. FIG. 21C. […] Reaction time for both cases was 20 minutes. […] FIG. 21D. […] Reaction time for both cases was 20 minutes.\n(§2) For a typical labeling reaction, 1 μg to 5 μg target protein was mixed with 0.2 nmol fluorophore-conjugated GDP-fucose and 0.2 μg of a fucosyltransferase in 30μL 25 mM Tris pH 7.5, 10 mM MnCl2. The mixture was incubated at 37° C. for 30 minutes. […] To release labeled glycans from a glycoprotein, the sample was first denatured by heating at 95° C. for two minutes in the presence of 0.5% SDS and 80 mM β-mercaptoethanol and then renatured with 1% Triton X-100, and finally treated with PNGase F at 10:1 mass ratio at 37° C. for 20 minutes. To release glycans from antibody, a sample was directly treated with Endo S at 10:1 mass ratio at 37° C. for 20 minutes. All samples were separated by sodium dodecyl sulfate—polyacrylamide gel electrophoresis (SDS-PAGE) at […]. For separating labeled glycoproteins and antibodies, 4-20% gradient SDS gel was used. For separating labeled free glycans, 15% or 17% gel was used. After separation, all gels were imaged using a FluorChem M imager (ProteinSimple, Bio-Techne, Minneapolis, MN). For glycoproteins samples, the gel was also imaged with traditional methods such as silver staining or trichloroethanol (TCE) staining.\n(§3) For sLe^x synthesis, G0 was first converted to G2 by B4GalT1, then converted to A2[3] by ST3Gal4, and finally converted to A2[3]F2 (carrier of sLe^x) by FUT7 (FIG. 21A). […]"}, "[2]": {"test_system": "fetal bovine fetuin and asialofetuin", "assay": "Labeling of fetuin and asialofetuin by fucosyltransferases with GDP-Cy5-Fuc", "conditions": "GDP-Cy5-Fuc donor, FIG. 9A", "method": "FIG. 9A-FIG. 9B show exemplary results of probing substrate glycans of various fucosyltransferases on fetuin and asialofetuin. FIG. 9A. Probing substrate glycans of fucosyltransferases with guanosine 5′-diphosphate activated Cy5 conjugated fucose (GDP-Cy5-Fuc). […] FUT9 labeled itself (indicated by an arrow in the gel). FIG. 9B. Tolerance of Alexa-Fluor®555 (555), Alexa-Fluor®488 (488), and Cy5 by the indicated fucosyltransferases. All reactions were incubated at 37° C. for 30 minutes and then separated on SDS-PAGE and imaged with silver staining (upper panels) and fluorescent imager (lower panels). M, molecular marker.\nFor a typical labeling reaction, 1 μg to 5 μg target protein was mixed with 0.2 nmol GDP-f-Fuc and 0.2 μg of a fucosyltransferase in 30 μL buffer of 25 mM Tris pH 7.5, 10 mM MnCl2. The mixture was incubated at 37° C. for 30 minutes. The reaction was then separated by sodium dodecyl sulfate—polyacrylamide gel electrophoresis (SDS-PAGE) and the gel was directly imaged using a fluorescent imager FluorChem M ProteinSimple, Bio-Techne, Minneapolis, MN), followed by imaging with traditional protein imaging methods such as silver staining or trichloroethanol (TCE) staining.\nThe labeled samples were then separated on SDS-PAGE, followed by traditional protein gel imaging and fluorescent imaging."}, "[3]": {"assay": "Enzymatic synthesis of Le^x and sLe^x by glycan gel electrophoresis, substrate G2", "method": "as §1, §2\nFor sLe^x synthesis, G0 was first converted to G2 by B4GalT1, then converted to A2[3] by ST3Gal4, and finally converted to A2[3]F2 (carrier of sLe^x) by FUT7 (FIG. 21A). During these steps, different amounts of enzymes, and multiple reaction times were applied to reveal the intermediate products.\nIntermediate products are signs for the progress of each enzymatic step."}, "[4]": {"assay": "Le^a synthesis from FUT8-labeled G0 (G0f) quantified with response curve", "conditions": "for Completion of reaction in Le^a synthesis: FIG. 22B", "method": "FIG. 22A-FIG. 22C show quantification of Le^a and its intermediate products. […] Lane 1 is labeled G0 (G0f) and lane 2 is labeled G2 (G2f). Lane 3 to 5 contain the intermediate reactions of converting G0f to the final Le^a carrying glycan A1 G1[3]F1f with the indicated enzymes. Lane 6 to lane 13 is a 2-fold serial dilution of G0f starting from 25 ng (19 pmol). The exposure time is 240 ms. The mass inputs of the serial dilution and all the band intensities were listed below the picture. FIG. 22C. The response curve of the serial dilution in FIG. 22B. The slope of the line represents the signal to mass ratio of G0f, which allows the quantification of the bands from lanes 1 to 5.\nTo evaluate the quantitative aspects of the glycan electrophoresis described in this article, a series of enzymatic reactions towards Le^a synthesis were run along with a 2-fold serial dilution of the FUT8-labeled antibody glycan G0 (G0f) (FIG. 22). Le^a was synthesized from G0f sequentially via the steps of galactosylation by B3GalT2, sialylation by ST3Gal3 and fucosylation by FUT3 (FIG. 22A). Major intermediate products of Le^a synthesis including G1[3]f, A1G1[3]f and A1 G1[3]F1f were observed (FIG. 22B). When the band intensities of the serial dilution of G0f in FIG. 22B were plotted against the masses of the glycan, a response curve with the linear coefficient of 0.9998 was obtained, with the slope of the curve representing the signal to mass ratio (FIG. 22C). The masses of the intermediates of Le^a synthesis were then calculated using the signal to mass ratio. […] In addition, the results also indicate that the sensitivity of the current method for glycan detection is below picomole level."}, "[5]": {"assay": "Enzymatic synthesis of sLe^x by glycan gel electrophoresis, substrate A2[3]", "method": "as §1, §2, §3"}, "[6]": {"conditions": "band masses from signal to mass ratio, FIG. 22"}}}
{"molecule": "β-1,4-Galactosyltransferase 1 [B4GalT1]", "values": [{"measurement": "Time for the complete conversion of G0 to G2", "setting": "[1]; FIG. 21B", "result": 10, "unit": "min"}, {"measurement": "Activity based on reaction completion", "setting": "[1]; substrate G0, completed product G2", "result": 2.3, "unit": "pmol/min/µg"}, {"measurement": "Relative activity", "setting": "[1]; substrate G0, product G2, normalized to FUT6 on sLe^x synthesis", "result": 17}]}
{"molecule": "FUT9: recombinant α-3 fucosyltransferase strictly active on lactosamine (protein, UniProt Q9Y231 1-359, looked up) 4-galactosyl-N-acetylglucosami …: MTSTSKGILRPFLIVCIILGCFMACLLIYIKPTNSWIFSPMESASSVLKMKNFFSTKTDYFNETTILVWVWPFGQTFDLTSCQAMFNIQGCHLTTDRSLYNKSHAVLIHHRDISWDLTNLPQQARPPFQKWIWMNLESPTHTPQKSGIEHLFNLTLTYRRDSDIQVPYGFLTVSTNPFVFEVPSKEKLVCWVVSNWNPEHARVKYYNELSKSIEIHTYGQAFGEYVNDKNLIPTISTCKFYLSFENSIHKDYITEKLYNAFLAGSVPVVLGPSRENYENYIPADSFIHVEDYNSPSELAKYLKEVDKNNKLYLSYFNWRKDFTVNLPRFWESHACLACDHVKRHQEYKSVGNLEKWFWN", "values": [{"measurement": "Which of fetuin and asialofetuin the fucosyltransferase labeled", "setting": "[2]", "result": "labeled asialofetuin"}, {"measurement": "Activity based on reaction completion", "setting": "[3]; substrate G2, completed product Le^x", "result": 2.3, "unit": "pmol/min/µg"}, {"measurement": "Relative activity", "setting": "[3]; substrate G2, product Le^x, normalized to FUT6 on sLe^x synthesis", "result": 17}]}
{"molecule": "ST3Gal3: recombinant human sialyltransferase that generates α2,3-sialylated N-glycans (protein, UniProt Q11203 1-375, looked up) CMP-N-acetylneuraminate-beta-1 …: MGLLVFVRNLLLALCLFLVLGFLYYSAWKLHLLQWEEDSNSVVLSFDSAGQTLGSEYDRLGFLLNLDSKLPAELATKYANFSEGACKPGYASALMTAIFPRFSKPAPMFLDDSFRKWARIREFVPPFGIKGQDNLIKAILSVTKEYRLTPALDSLRCRRCIIVGNGGVLANKSLGSRIDDYDIVVRLNSAPVKGFEKDVGSKTTLRITYPEGAMQRPEQYERDSLFVLAGFKWQDFKWLKYIVYKERVSASDGFWKSVATRVPKEPPEIRILNPYFIQEAAFTLIGLPFNNGLMGRGNIPTLGSVAVTMALHGCDEVAVAGFGYDMSTPNAPLHYYETVRMAAIKESWTHNIQREKEFLRKLVKARVITDLSSGI", "values": [{"measurement": "Completion of reaction in Le^a synthesis", "setting": "[4]", "result": "almost completed"}]}
{"molecule": "B3GalT2: galactosyltransferase used for galactosylation in Le^a synthesis (protein, UniProt O43825 1-422, looked up) Beta-1,3-galactosyltransferase …: MLQWRRRHCCFAKMTWNAKRSLFRTHLIGVLSLVFLFAMFLFFNHHDWLPGRAGFKENPVTYTFRGFRSTKSETNHSSLRNIWKETVPQTLRPQTATNSNNTDLSPQGVTGLENTLSANGSIYNEKGTGHPNSYHFKYIINEPEKCQEKSPFLILLIAAEPGQIEARRAIRQTWGNESLAPGIQITRIFLLGLSIKLNGYLQRAILEESRQYHDIIQQEYLDTYYNLTIKTLMGMNWVATYCPHIPYVMKTDSDMFVNTEYLINKLLKPDLPPRHNYFTGYLMRGYAPNRNKDSKWYMPPDLYPSERYPVFCSGTGYVFSGDLAEKIFKVSLGIRRLHLEDVYVGICLAKLRIDPVPPPNEFVFNHWRVSYSSCKYSHLITSHQFQPSELIKYWNHLQQNKHNACANAAKEKAGRYRHRKLH", "values": [{"measurement": "Share of G0f converted to G1[3]f", "setting": "[4]; [6]", "result": 53, "unit": "%"}, {"measurement": "Share of G0f converted to G2[3]f", "setting": "[4]; [6]", "result": 9, "unit": "%"}]}
{"molecule": "FUT7: α-3 fucosyltransferase strictly active on sialyllactosamine (protein, UniProt Q11130 1-342, looked up) Alpha-(1,3)-fucosyltransferase …: MNNAGHGPTRRLRGLGVLAGVALLAALWLLWLLGSAPRGTPAPQPTITILVWHWPFTDQPPELPSDTCTRYGIARCHLSANRSLLASADAVVFHHRELQTRRSHLPLAQRPRGQPWVWASMESPSHTHGLSHLRGIFNWVLSYRRDSDIFVPYGRLEPHWGPSPPLPAKSRVAAWVVSNFQERQLRARLYRQLAPHLRVDVFGRANGRPLCASCLVPTVAQYRFYLSFENSQHRDYITEKFWRNALVAGTVPVVLGPPRATYEAFVPADAFVHVDDFGSARELAAFLTGMNESRYQRFFAWRDRLRVRLFTDWRERFCAICDRYPHLPRSQVYEDLEGWFQA", "values": [{"measurement": "Which of fetuin and asialofetuin the fucosyltransferase labeled", "setting": "[2]", "result": "labeled fetuin"}, {"measurement": "Activity based on reaction completion", "setting": "[5]; completed product sLe^x", "result": 0.38, "unit": "pmol/min/µg"}, {"measurement": "Relative activity", "setting": "[5]; product sLe^x, normalized to FUT6 on sLe^x synthesis", "result": 2.8}]}
{"molecule": "FUT3: fucosyltransferase used for fucosylation in Le^a synthesis (protein, UniProt P21217 1-361, looked up) 3-galactosyl-N-acetylglucosami …: MDPLGAAKPQWPWRRCLAALLFQLLVAVCFFSYLRVSRDDATGSPRAPSGSSRQDTTPTRPTLLILLRTWPFHIPVALSRCSEMVPGTADCHITADRKVYPQADMVIVHHWDIMSNPKSRLPPSPRPQGQRWIWFNLEPPPNCQHLEALDRYFNLTMSYRSDSDIFTPYGWLEPWSGQPAHPPLNLSAKTELVAWAVSNWKPDSARVRYYQSLQAHLKVDVYGRSHKPLPKGTMMETLSRYKFYLAFENSLHPDYITEKLWRNALEAWAVPVVLGPSRSNYERFLPPDAFIHVDDFQSPKDLARYLQELDKDHARYLSYFRWRETLRPRSFSWALDFCKACWKLQQESRYQTVRSIAAWFT", "values": [{"measurement": "Completion of reaction in Le^a synthesis", "setting": "[4]", "result": "almost completed"}]}
